Where two headings read alike, the source gives them in different places.
Tests used:
[1] = SAR3419 Phase I clinical trials, pharmacokinetics and toxicity; type: in vivo, human
Excerpt: SAR3419 is a DM4-containing antibody drug conjugate that comprises the humanized antibody Hu-B4 (humanized mouse IgG1 MAb targeting CD19) and the SPDB linker. Phase I clinical trials were initiated in patients having relapsed or refractory CD19+B cell Non-Hodgkins Lymphoma.

[2] = type: in vivo; details: rabbit, 3 weekly doses
Method: Maytansinoid conjugates with different linker-maytansinoid formats were evaluated for induction of corneal ocular toxicity in a preclinical rabbit model. Hallmarks of corneal epithelial damage such as migration of pigmented basal epithelial cells distal from the limbus, corneal pannus, and epithelial erosion were assessed following 3 weekly doses.

[3] = IMGN242 preclinical pharmacokinetic studies, mice; type: in vivo
Method: (§1) IMGN242 is an antibody drug conjugate for the treatment of CanAg-expressing tumors. The compound is made by conjugating the potent cytotoxic maytansinoid, DM4, to the monoclonal antibody, huC242. Forty-five patients have been treated with IMGN242 at 8 different dose levels (18 to 297 mg/m2) in two clinical trials. […] The determined half-life in patients was similar to that predicted for IMGN242 from preclinical pharmacokinetic studies (t1/2 about 5 days in mice and 4 days in cynomolgus monkeys).

[4] = IMGN242 pharmacokinetics and toxicity in human clinical trials; type: in vivo
[5] = IMGN242 preclinical pharmacokinetic studies, cynomolgus monkeys; type: in vivo
Method: as §1

[6] = patients, 160 mg/m^2 and 208 mg/m^2
[7] = patients with low circulating CanAg (<1000 U/mL)

With SAR3419 the elimination [1, 6] was “eliminated rapidly”, the exposure versus dose [1, 6] was “increased with dose” and the ocular toxicity ([1]; some patients, 160 mg/m^2 or 208 mg/m^2) was “displayed ocular toxicity”.

With SMCC-DM1 the corneal ocular toxicity ([2]; dose 8 mg/kg) was “−”, the corneal ocular toxicity ([2]; dose 10 mg/kg) was “−” and the corneal ocular toxicity ([2]; dose 12 mg/kg) was “−”. For the same molecule, the corneal ocular toxicity ([2]; dose 16 mg/kg) was “−”.

B1: IMGN242 (conjugate, chains of the INN, looked up)
VH: QVQLVQSGAEVKKPGETVKISCKASDYTFTYYGMNWVKQAPGQGLKWMGWIDTTTGEPTYAQKFQGRIAFSLETSASTAYLQIKSLKSEDTATYFCARRGPYNWYFDVWGQGTTVTVSS
VL: DIVMTQSPLSVPVTPGEPVSISCRSSKSLLHSNGNTYLYWFLQRPGQSPQLLIYRMSNLVSGVPDRFSGSGSGTAFTLRISRVEAEDVGVYYCLQHLEYPFTFGPGTKLELK
modifications: maytansinoid DM1 payload (mertansine)
In the case of B1, the t1/2 [3] is reported as “about 5 days”, the Cmax versus dose ([4]; patients) is reported as “increased proportionally with increasing dose” and the “effect of circulating CanAg levels on Cmax” value ([4]; patients) is reported as “not significantly affected”. The increase in clearance ([4]; patients with high CanAg (>1000 U/mL) compared to low (<1000 U/mL)) was 3 to 5 fold, the “duration of initial rapid distribution phase” value [4, 7] was “about 48 hours” and the “pharmacokinetic profile in plasma” value [4, 7] was “two-phase pharmacokinetic profile”. The elimination phase half-life ([4]; patients with low circulating CanAg, preliminary analysis) was “about 5 days”, the “incidence of possible study drug-related ocular toxicities” value ([4]; patients with low plasma CanAg (<1000 U/ml), dose 168 mg/m2) was “notable incidence” and the “dose limiting toxicities (DLTs)” value ([4]; patients, 18 to 297 mg/m2) was “decreased visual acuity, corneal deposits and keratitis”. It also gave a t1/2 [5] of roughly 96 h.

— patent publication US20120282282A1, “Methods for Decreasing Ocular Toxicity of Antibody Drug Conjugates” (priority 2011, published 2012)
